Test results taken from the supplement of paper PMC9112550, “Optimization of the antimicrobial peptide Bac7 by deep mutational scanning” (BMC Biology, 2022).

tested on: Escherichia coli TOP10; assay: shrunken log2 fold change of peptide-encoding DNA abundance (4.5 h post-induction vs induction); higher = less antimicrobial activity (less host growth inhibition); details: time post-induction: 4.5 h; library: site-saturation at positions 5, 18, 19, 20
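Further: peptides expressed intracellularly from a pBAD plasmid library in pooled LB shake-flask culture, induced with 0.3% L-arabinose, DNA abundance read by NGS, three biological replicates, DESeq2 with apeglm shrinkage.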

Row | Sequence | shrunken log2 fold change
1 | RRIRARPPRLPRPRPRPFWCPRP | 0.0247
2 | RRIRARPPRLPRPRPRPGATPRP | 0.959
3 | RRIRARPPRLPRPRPRPGECPRP | 0.298
4 | RRIRARPPRLPRPRPRPGFKPRP | -0.02
5 | RRIRARPPRLPRPRPRPGFWPRP | 0.682
6 | RRIRARPPRLPRPRPRPGGAPRP | 0.76
7 | RRIRARPPRLPRPRPRPGIIPRP | 0.106
8 | RRIRARPPRLPRPRPRPGKGPRP | 0.158
9 | RRIRARPPRLPRPRPRPGKQPRP | 0.292
10 | RRIRARPPRLPRPRPRPGLMPRP | 0.524
11 | RRIRARPPRLPRPRPRPGMKPRP | 0.186
12 | RRIRARPPRLPRPRPRPGRAPRP | 0.731
13 | RRIRARPPRLPRPRPRPGRDPRP | 0.671
14 | RRIRARPPRLPRPRPRPGSEPRP | 0.0951
15 | RRIRARPPRLPRPRPRPGTWPRP | 0.161
16 | RRIRARPPRLPRPRPRPGVAPRP | 1.05
17 | RRIRARPPRLPRPRPRPGVLPRP | 0.2
18 | RRIRARPPRLPRPRPRPGVMPRP | 0.437
19 | RRIRARPPRLPRPRPRPGWYPRP | 0.437
20 | RRIRARPPRLPRPRPRPHAFPRP | 0.231
21 | RRIRARPPRLPRPRPRPHCSPRP | -0.131
22 | RRIRARPPRLPRPRPRPHDNPRP | 0.00651

Row | Sequence | shrunken log2 fold change
23 | RRIRARPPRLPRPRPRPHEQPRP | 0.257
24 | RRIRARPPRLPRPRPRPHFLPRP | -0.127
25 | RRIRARPPRLPRPRPRPHFTPRP | 0.345
26 | RRIRARPPRLPRPRPRPHGWPRP | 0.184
27 | RRIRARPPRLPRPRPRPHHAPRP | 0.0775
28 | RRIRARPPRLPRPRPRPHHFPRP | -0.0814
29 | RRIRARPPRLPRPRPRPHHHPRP | -0.469
30 | RRIRARPPRLPRPRPRPHHKPRP | -0.347
31 | RRIRARPPRLPRPRPRPHHLPRP | -0.313
32 | RRIRARPPRLPRPRPRPHIHPRP | -0.45
33 | RRIRARPPRLPRPRPRPHIYPRP | -0.805
34 | RRIRARPPRLPRPRPRPHKEPRP | 0.131
35 | RRIRARPPRLPRPRPRPHKMPRP | 0.118
36 | RRIRARPPRLPRPRPRPHMAPRP | -0.183
37 | RRIRARPPRLPRPRPRPHNCPRP | -0.162
38 | RRIRARPPRLPRPRPRPHQDPRP | -0.126
39 | RRIRARPPRLPRPRPRPHQEPRP | 0.568
40 | RRIRARPPRLPRPRPRPHQGPRP | -0.0611
41 | RRIRARPPRLPRPRPRPHQMPRP | -0.066
42 | RRIRARPPRLPRPRPRPHSFPRP | 0.00388
43 | RRIRARPPRLPRPRPRPHSYPRP | 0.0128
44 | RRIRARPPRLPRPRPRPHTNPRP | -0.227

Row | Sequence | shrunken log2 fold change
45 | RRIRARPPRLPRPRPRPHTWPRP | 0.0641
46 | RRIRARPPRLPRPRPRPHVMPRP | -0.0593
47 | RRIRARPPRLPRPRPRPHWFPRP | 0.0804
48 | RRIRARPPRLPRPRPRPHWHPRP | -0.0354
49 | RRIRARPPRLPRPRPRPHWIPRP | -0.277
50 | RRIRARPPRLPRPRPRPHYIPRP | -0.296
51 | RRIRARPPRLPRPRPRPHYNPRP | -0.467
52 | RRIRARPPRLPRPRPRPIACPRP | 0.0285
53 | RRIRARPPRLPRPRPRPIASPRP | -0.0816
54 | RRIRARPPRLPRPRPRPIATPRP | 1.21
55 | RRIRARPPRLPRPRPRPIAWPRP | 0.442
56 | RRIRARPPRLPRPRPRPICLPRP | 0.425
57 | RRIRARPPRLPRPRPRPICNPRP | 0.176
58 | RRIRARPPRLPRPRPRPIDFPRP | 0.125
59 | RRIRARPPRLPRPRPRPIFVPRP | 0.233
60 | RRIRARPPRLPRPRPRPIFWPRP | 0.305
61 | RRIRARPPRLPRPRPRPIGVPRP | 0.892
62 | RRIRARPPRLPRPRPRPIGYPRP | -0.0969
63 | RRIRARPPRLPRPRPRPIHCPRP | -0.189
64 | RRIRARPPRLPRPRPRPIHMPRP | 0.0203
65 | RRIRARPPRLPRPRPRPIHPPRP | 0.0444
66 | RRIRARPPRLPRPRPRPIMCPRP | -0.0139

Row | Sequence | shrunken log2 fold change
67 | RRIRARPPRLPRPRPRPIMGPRP | 0.0143
68 | RRIRARPPRLPRPRPRPINLPRP | -0.376
69 | RRIRARPPRLPRPRPRPINNPRP | -0.441
70 | RRIRARPPRLPRPRPRPIPFPRP | 0.00602
71 | RRIRARPPRLPRPRPRPIQCPRP | 0.00559
72 | RRIRARPPRLPRPRPRPIRSPRP | -0.129
73 | RRIRARPPRLPRPRPRPISCPRP | 0.0406
74 | RRIRARPPRLPRPRPRPISDPRP | 0.266
75 | RRIRARPPRLPRPRPRPISQPRP | 0.177
76 | RRIRARPPRLPRPRPRPITVPRP | -0.201
77 | RRIRARPPRLPRPRPRPIVMPRP | -0.0831
78 | RRIRARPPRLPRPRPRPKAYPRP | 0.088
79 | RRIRARPPRLPRPRPRPKCMPRP | 0.0351
80 | RRIRARPPRLPRPRPRPKCPPRP | -0.0505
81 | RRIRARPPRLPRPRPRPKDGPRP | 0.298
82 | RRIRARPPRLPRPRPRPKDSPRP | 0.181
83 | RRIRARPPRLPRPRPRPKEKPRP | 0.0797
84 | RRIRARPPRLPRPRPRPKEYPRP | -0.15
85 | RRIRARPPRLPRPRPRPKFTPRP | 0.00836
86 | RRIRARPPRLPRPRPRPKHLPRP | 0.417
87 | RRIRARPPRLPRPRPRPKHNPRP | 0.114
88 | RRIRARPPRLPRPRPRPKHPPRP | 0.199

Row | Sequence | shrunken log2 fold change
89 | RRIRARPPRLPRPRPRPKIGPRP | 0.458
90 | RRIRARPPRLPRPRPRPKIRPRP | 0.379
91 | RRIRARPPRLPRPRPRPKITPRP | -0.0367
92 | RRIRARPPRLPRPRPRPKKLPRP | 0.223
93 | RRIRARPPRLPRPRPRPKNAPRP | 0.323
94 | RRIRARPPRLPRPRPRPKNCPRP | -0.245
95 | RRIRARPPRLPRPRPRPKPLPRP | 0.455
96 | RRIRARPPRLPRPRPRPKPSPRP | 0.524
97 | RRIRARPPRLPRPRPRPKPTPRP | 0.744
98 | RRIRARPPRLPRPRPRPKPWPRP | 0.823
99 | RRIRARPPRLPRPRPRPKQEPRP | 0.254
100 | RRIRARPPRLPRPRPRPKQHPRP | 0.312
101 | RRIRARPPRLPRPRPRPKQSPRP | 0.608
102 | RRIRARPPRLPRPRPRPKQTPRP | 0.453
103 | RRIRARPPRLPRPRPRPKSTPRP | 0.28
104 | RRIRARPPRLPRPRPRPKTWPRP | 0.261
105 | RRIRARPPRLPRPRPRPKVGPRP | 0.284
106 | RRIRARPPRLPRPRPRPKVLPRP | 0.269
107 | RRIRARPPRLPRPRPRPKWIPRP | 0.0218
108 | RRIRARPPRLPRPRPRPKWTPRP | -0.00127
109 | RRIRARPPRLPRPRPRPKYGPRP | -0.0411
